Measured values as given in patent US6982321.

Target: isolated VL-domain of the reshaped anti-lysozyme Fv-fragment (HuVLLYS)
Experiment: formaldehyde crosslinking of Fv, overloaded SDS gel

B1: isolated VL-domain of the reshaped anti-lysozyme Fv-fragment (HuVLLYS) (protein)
VL: DIQMTQSPSSLSASVGDRVTITCRASGNIHNYLAWYQQKPGKAPKLLIYYTTTLADGVPSRFSGSGSGTDFTFTISSLQPEDIATYYCQHFWSTPRTFGQGTKVEIK
In the case of B1, the fraction of crosslinked material is reported as less than 5%.
